Holding throughout (experiment): SPR; cytokine immobilised on ProteOn GLH sensor chip by amine coupling (9,000-14,000 RU); S100P (wild type or mutant) as analyte, 62 nM-16 µM; 25 °C; 10 mM HEPES, 150 mM NaCl, 1 mM CaCl2, 0.05% TWEEN 20, pH 7.4; heterogeneous ligand model (two ligand populations), one-site model for IL-13; values averaged over analyte concentrations (n = 3-5)
Holding throughout (details): both partners purified
A general note: Surface plasmon resonance follows binding to a sensor surface in real time, without labels.

The target of one assay is T1, Thrombopoietin (human, UniProt P40225 22-353).
T1 construct: Thrombopoietin, human, UniProt P40225; see the manufacturer's catalogue number; also called THPO; source: bought: SCI-Store (Russia) (source CHO)

The target of another assay is T2, Interleukin-35 (human, UniProt P29459 23-219; Q14213 21-229).
T2 construct: the chain used for the SCOP family assignment; also called IL-35; source: bought: PeproTech (source HEK293)
T2 sequence (looked up) 1: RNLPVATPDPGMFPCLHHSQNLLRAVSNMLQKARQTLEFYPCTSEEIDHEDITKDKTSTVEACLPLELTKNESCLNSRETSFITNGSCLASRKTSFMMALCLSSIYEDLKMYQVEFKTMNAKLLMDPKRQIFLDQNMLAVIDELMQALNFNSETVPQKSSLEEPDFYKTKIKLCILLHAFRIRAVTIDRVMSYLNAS
T2 sequence (looked up) 2: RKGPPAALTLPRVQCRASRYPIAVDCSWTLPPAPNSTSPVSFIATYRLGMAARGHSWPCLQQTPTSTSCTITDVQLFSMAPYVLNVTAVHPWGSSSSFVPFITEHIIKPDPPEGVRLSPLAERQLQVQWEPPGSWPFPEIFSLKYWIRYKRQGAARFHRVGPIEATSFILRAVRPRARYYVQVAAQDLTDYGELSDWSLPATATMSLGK

A further assay deals with T3, Growth hormone variant (human, UniProt P01242 27-217).
T3 construct: Growth hormone variant, human, UniProt P01242; see the manufacturer's catalogue number; also called GH-V; source: bought: R&D Systems (source E. coli)

For another assay, the target named is T4, Leptin (human, UniProt P41159 22-167).
T4 construct: Leptin, human, UniProt P41159; see the manufacturer's catalogue number; source: bought: PeproTech (source E. coli)

For the next assay, the target named is T5, Interleukin-22 (human, UniProt Q9GZX6 34-179).
T5 construct: Interleukin-22, human, UniProt Q9GZX6; see the manufacturer's catalogue number; also called IL-22; source: bought: PeproTech (source E. coli)
T5 sequence (looked up): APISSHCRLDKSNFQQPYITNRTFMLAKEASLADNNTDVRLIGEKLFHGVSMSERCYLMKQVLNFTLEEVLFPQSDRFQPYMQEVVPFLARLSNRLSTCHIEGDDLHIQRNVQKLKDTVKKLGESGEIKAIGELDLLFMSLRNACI

The next assay has as its target T6, Interleukin-9 (human, UniProt P15248 19-144).
T6 construct: Interleukin-9, human, UniProt P15248; see the manufacturer's catalogue number; also called IL-9; source: bought: PeproTech (source E. coli)

T4 sequence (P41159 22-167): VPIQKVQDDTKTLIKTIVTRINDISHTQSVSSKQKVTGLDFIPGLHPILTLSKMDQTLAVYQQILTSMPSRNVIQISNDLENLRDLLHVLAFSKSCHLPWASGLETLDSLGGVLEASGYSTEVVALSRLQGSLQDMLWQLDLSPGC
T1 sequence (P40225 22-353): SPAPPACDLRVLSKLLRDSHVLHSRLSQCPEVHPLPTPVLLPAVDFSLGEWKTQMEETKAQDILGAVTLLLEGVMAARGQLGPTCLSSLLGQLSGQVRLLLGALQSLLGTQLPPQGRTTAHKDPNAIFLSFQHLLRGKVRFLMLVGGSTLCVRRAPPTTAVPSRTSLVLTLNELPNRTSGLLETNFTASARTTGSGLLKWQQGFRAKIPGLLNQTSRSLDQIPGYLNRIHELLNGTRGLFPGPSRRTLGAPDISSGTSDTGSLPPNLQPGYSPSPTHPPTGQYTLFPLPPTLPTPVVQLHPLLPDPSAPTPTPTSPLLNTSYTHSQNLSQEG
T6 sequence (P15248 19-144): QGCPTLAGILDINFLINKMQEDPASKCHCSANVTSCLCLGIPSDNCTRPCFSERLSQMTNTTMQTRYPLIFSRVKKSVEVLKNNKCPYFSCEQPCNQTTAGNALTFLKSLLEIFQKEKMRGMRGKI
T3 sequence (P01242 27-217, change not shown): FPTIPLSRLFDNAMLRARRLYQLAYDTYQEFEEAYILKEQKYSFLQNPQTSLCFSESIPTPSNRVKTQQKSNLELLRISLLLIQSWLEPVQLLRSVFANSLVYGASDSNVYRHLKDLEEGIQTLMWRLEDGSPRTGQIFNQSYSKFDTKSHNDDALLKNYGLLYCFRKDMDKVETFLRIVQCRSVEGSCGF

B1: Human S100P protein (recombinant, Ca^2+-loaded) (natural protein)
chain: MTELETAMGMIIDVFSRYSGSEGSTQTLTKGELKVLMEKELPGFLQSGKDKDAVDKLLKDLDANGDAQVDFSEFIVFVAAITSACHKYFEKAGLK
notes: S100P protein, human, recombinant; probably the whole 95-residue protein (surmise); also called wild-type S100P; WT S100P; source: E. coli, prepared as previously described [28]
As for B1, the “Kd1 (heterogeneous ligand model, population 1)” value with Thrombopoietin worked out at 834 pM; with Interleukin-35, 96.2 nM; with Growth hormone variant it was 1.04 µM; with Leptin, 143 nM; with Interleukin-22 it was 482 nM; with Interleukin-9 it was 34.7 nM. Also, the “Kd2 (heterogeneous ligand model, population 2)” value with Thrombopoietin is 41.2 nM; with Interleukin-35, 255 nM; in the assay with Growth hormone variant, 2.73 µM; in the assay with Leptin, 404 nM; with Interleukin-22 it was 780 nM; in the assay with Interleukin-9, 136 nM. Also, the “kd1 (heterogeneous ligand model, population 1)” value in the assay with Thrombopoietin amounted to 0.000409 s⁻¹; with Interleukin-35 it was 0.000531 s⁻¹; with Growth hormone variant it was 0.00177 s⁻¹; in the assay with Leptin, 0.000452 s⁻¹; with Interleukin-22, 0.00764 s⁻¹; with Interleukin-9, 0.000531 s⁻¹. The “kd2 (heterogeneous ligand model, population 2)” value with Thrombopoietin is 0.00829 s⁻¹; with Interleukin-35, 0.012 s⁻¹; in the assay with Growth hormone variant, 0.0181 s⁻¹; with Leptin, 0.0307 s⁻¹; with Interleukin-22, 0.00276 s⁻¹; with Interleukin-9, 0.017 s⁻¹.
